US20140341881

Tests used:
[1] = biological target: T1, CFP-RVTST-YFP-6xHis substrate (peptide E12)
T1 chain: GALGGRVTSTGST

[2] = biological target: T2, CFP-LQRAI-YFP-6xHis substrate (peptide E8)
T2 chain: GALGGLQRAIGST

[3] = biological target: T3, CFP-TVDYA-YFP-6xHis substrate (peptide G9)
T3 chain: GALGGTVDYAGST

[4] = biological target: T4, CFP-YQSLN-YFP-6xHis substrate (peptide F10)
T4 chain: GALGGYQSLNGST

[5] = biological target: T5, CFP-VVMKD-YFP-6xHis substrate (peptide E10)
T5 chain: GALGGVVMKDGST

[6] = biological target: T6, CFP-TSYLN-YFP-6xHis substrate (peptide D7)
T6 chain: GALGGTSYLNGST

[7] = biological target: T7, CFP-AYGLA-YFP-6xHis substrate (clone G5)
T7 chain: GALGGAYGLAGST

[8] = biological target: T8, CFP-GHRIN-YFP-6xHis substrate (clone F7)
T8 chain: GALGGGHRINGST

[9] = biological target: T9, CFP-VGSLR-YFP-6xHis substrate (peptide G1)
T9 chain: GALGGVGSLRGST

[10] = biological target: T10, CFP-LSRDN-YFP-6xHis substrate (peptide E7)
T10 chain: GALGGLSRDNGST

[11] = biological target: T11, CFP-EAPAK-YFP-6xHis substrate (clone G7)
T11 chain: GALGGEAPAKGST

[12] = biological target: T12, CFP-KLKET-YFP-6xHis substrate (clone F5)
T12 chain: GALGGKLKETGST

[13] = biological target: T13, CFP-LSGGR-YFP-6xHis substrate (peptide E2)
T13 chain: GALGGLSGGRGST

[14] = biological target: T14, CFP-VGLYD-YFP-6xHis substrate (peptide F6)
T14 chain: GALGGVGLYDGST

[15] = biological target: T15, CFP-STKGI-YFP-6xHis substrate (clone G3)
T15 chain: GALGGSTKGIGST

[16] = biological target: T16, CFP-SDKVY-YFP-6xHis substrate (clone C5)
T16 chain: GALGGSDKVYGST

[17] = biological target: T17, CFP-RVDTG-YFP-6xHis substrate (clone D11)
T17 chain: GALGGRVDTGGST

[18] = biological target: T18, CFP-SAVRP-YFP-6xHis substrate (clone E11)
T18 chain: GALGGSAVRPGST

[19] = biological target: T19, CFP-MQATK-YFP-6xHis substrate (clone F4)
T19 chain: GALGGMQATKGST

[20] = biological target: T20, CFP-TTDLR-YFP-6xHis substrate (clone E4)
T20 chain: GALGGTTDLRGST

[21] = biological target: T21, CFP-PDRHM-YFP-6xHis substrate (peptide F3)
T21 chain: GALGGPDRHMGST

[22] = biological target: T22, CFP-AYGYK-YFP-6xHis substrate (peptide E1)
T22 chain: GALGGAYGYKGST

[23] = biological target: T23, CFP-MQVKH-YFP-6xHis substrate (clone E6)
T23 chain: GALGGMQVKHGST

[24] = biological target: T24, CFP-YQNSS-YFP-6xHis substrate (clone C9)
T24 chain: GALGGYQNSSGST

[25] = biological target: T25, CFP-QRLRD-YFP-6xHis substrate (peptide F11)
T25 chain: GALGGQRLRDGST

[26] = biological target: T26, CFP-NNKLR-YFP-6xHis substrate (peptide E9)
T26 chain: GALGGNNKLRGST

[27] = biological target: T27, CFP-NQRSS-YFP-6xHis substrate (peptide E5)
T27 chain: GALGGNQRSSGST

[28] = biological target: T28, CFP-RQTND-YFP-6xHis substrate (peptide C11)
T28 chain: GALGGRQTNDGST

[29] = biological target: T29, CFP-RGKTN-YFP-6xHis substrate (peptide D9)
T29 chain: GALGGRGKTNGST

[30] = biological target: T30, CFP-QPNGY-YFP-6xHis substrate (clone F1)
T30 chain: GALGGQPNGYGST

[31] = biological target: T31, CFP-HETLK-YFP-6xHis substrate (clone G11)
T31 chain: GALGGHETLKGST

[32] = biological target: T32, CFP-PVHLY-YFP-6xHis substrate (clone F12)
T32 chain: GALGGPVHLYGST

B1: human neutrophil elastase (HNE) (protein)
chain: IVGGRRARPHAWPFMVSLQLRGGHFCGATLIAPNFVMSAAHCVANVNVRAVRVVLGAHNLSRREPTRQVFAVQRIFENGYDPVNLLNDIVILQLNGSATINANVQVAQLPAQGRRLGNGVQCLAMGWGLLGRNRGIASVLQELNVTVVTSLCRRSNVCTLVRGRQAGVCFGDSGSPLVCNGLIHGIASFVRGGCASGLYPDAFAPVAQFVNWIDSIIQ
With B1 the Kcat/Km [1] was 200000 M⁻¹ s⁻¹, the Kcat/Km [2] was 209000 M⁻¹ s⁻¹ and the Kcat/Km [3] was 181000 M⁻¹ s⁻¹. It also gave a Kcat/Km [4] of 49000 M⁻¹ s⁻¹, a Kcat/Km [5] of 65000 M⁻¹ s⁻¹ and a Kcat/Km [6] of 90000 M⁻¹ s⁻¹.

B2: human kallikrein 14 (hK14) (protein)
chain: IIGGHTCTRSSQPWQAALLAGPRRRFLCGGALLSGQWVITAAHCGRPILQVALGKHNLRRWEATQQVLRVVRQVTHPNYNSRTHDNDLMLLQLQQPARIGRAVRPIEVTQACASPGTSCRVSGWGTISSPIARYPASLQCVNINISPDEVCQKAYPRTITPGMVCAGVPQGGKDSCQGDSGGPLVCRGQLQGLVSWGMERCALPGYPGVYTNLCKYRSWIEETMRDK
Protein B2 has a kcat/Km [7] of 6000 M⁻¹ s⁻¹, a kcat/Km [8] of 12000 M⁻¹ s⁻¹ and a Kcat/Km [9] of 481000 M⁻¹ s⁻¹. The kcat/Km [9] was 481000 M⁻¹ s⁻¹, the Kcat/Km [1] was 26000 M⁻¹ s⁻¹ and the kcat/Km [1] was 26000 M⁻¹ s⁻¹. The Kcat/Km [2] was 367000 M⁻¹ s⁻¹, the kcat/Km [2] was 367000 M⁻¹ s⁻¹ and the Kcat/Km [3] was 134000 M⁻¹ s⁻¹. It also gave a kcat/Km [3] of 134000 M⁻¹ s⁻¹, a Kcat/Km [10] of 127000 M⁻¹ s⁻¹ and a kcat/Km [10] of 127000 M⁻¹ s⁻¹. It also gave a kcat/Km [11] of 8000 M⁻¹ s⁻¹, a Kcat/Km [4] of 12000 M⁻¹ s⁻¹ and a kcat/Km [4] of 12000 M⁻¹ s⁻¹. The kcat/Km [12] was 19000 M⁻¹ s⁻¹, the Kcat/Km [13] was 207000 M⁻¹ s⁻¹ and the kcat/Km [13] was 207000 M⁻¹ s⁻¹. It also gave a Kcat/Km [14] of 18000 M⁻¹ s⁻¹, a kcat/Km [14] of 18000 M⁻¹ s⁻¹ and a kcat/Km [15] of 20000 M⁻¹ s⁻¹. For the same protein, the kcat/Km [16] was 9000 M⁻¹ s⁻¹, the kcat/Km [17] was 15000 M⁻¹ s⁻¹ and the Kcat/Km [5] was 15000 M⁻¹ s⁻¹. The kcat/Km [5] was 15000 M⁻¹ s⁻¹, the kcat/Km [18] was 5000 M⁻¹ s⁻¹ and the kcat/Km [19] was 8000 M⁻¹ s⁻¹. The kcat/Km [20] was 27000 M⁻¹ s⁻¹, the Kcat/Km [21] was 243000 M⁻¹ s⁻¹ and the kcat/Km [21] was 243000 M⁻¹ s⁻¹. For the same protein, the Kcat/Km [22] was 24000 M⁻¹ s⁻¹, the kcat/Km [22] was 24000 M⁻¹ s⁻¹ and the kcat/Km [23] was 34000 M⁻¹ s⁻¹. The “hydrolysis of fluorescent substrate” value (CFP-GGGGG-YFP) was “is not hydrolyzed by hK14 (not shown)”, the Kcat/Km [6] was 9000 M⁻¹ s⁻¹ and the kcat/Km [6] was 9000 M⁻¹ s⁻¹. It also gave a kcat/Km [24] of 6000 M⁻¹ s⁻¹, a Kcat/Km [25] of 307000 M⁻¹ s⁻¹ and a kcat/Km [25] of 307000 M⁻¹ s⁻¹. It also gave a Kcat/Km [26] of 74000 M⁻¹ s⁻¹, a kcat/Km [26] of 74000 M⁻¹ s⁻¹ and a Kcat/Km [27] of 388000 M⁻¹ s⁻¹. The “fold selectivity of cleavage against PK” value [27] was 27 and 78 fold more selective for hK14 than for hK2 and PK, respectively, the “fold selectivity of cleavage against hK2” value [27] was 27 and 78 fold more selective for hK14 than for hK2 and PK, respectively and the kcat/Km [27] was 388000 M⁻¹ s⁻¹. It also gave a Kcat/Km [28] of 415000 M⁻¹ s⁻¹, a kcat/Km [28] of 415000 M⁻¹ s⁻¹ and a Kcat/Km [29] of 80000 M⁻¹ s⁻¹. The kcat/Km [29] was 80000 M⁻¹ s⁻¹, the kcat/Km [30] was 6000 M⁻¹ s⁻¹ and the kcat/Km [31] was 9000 M⁻¹ s⁻¹. It also gave a kcat/Km [32] of 7000 M⁻¹ s⁻¹.
